# Laboratory results taken from patent US20040248765.
# Test system: Example (8): 1-[3-(D-Alanyl-L-alanyl-L-alanyl-L-leucyl-glycyl-L-leucyl-L-prolylamino)-propylamino]anthraquinone trifluoroacetate
# Chain of human recombinant MMP-9 (chain, as listed by the source): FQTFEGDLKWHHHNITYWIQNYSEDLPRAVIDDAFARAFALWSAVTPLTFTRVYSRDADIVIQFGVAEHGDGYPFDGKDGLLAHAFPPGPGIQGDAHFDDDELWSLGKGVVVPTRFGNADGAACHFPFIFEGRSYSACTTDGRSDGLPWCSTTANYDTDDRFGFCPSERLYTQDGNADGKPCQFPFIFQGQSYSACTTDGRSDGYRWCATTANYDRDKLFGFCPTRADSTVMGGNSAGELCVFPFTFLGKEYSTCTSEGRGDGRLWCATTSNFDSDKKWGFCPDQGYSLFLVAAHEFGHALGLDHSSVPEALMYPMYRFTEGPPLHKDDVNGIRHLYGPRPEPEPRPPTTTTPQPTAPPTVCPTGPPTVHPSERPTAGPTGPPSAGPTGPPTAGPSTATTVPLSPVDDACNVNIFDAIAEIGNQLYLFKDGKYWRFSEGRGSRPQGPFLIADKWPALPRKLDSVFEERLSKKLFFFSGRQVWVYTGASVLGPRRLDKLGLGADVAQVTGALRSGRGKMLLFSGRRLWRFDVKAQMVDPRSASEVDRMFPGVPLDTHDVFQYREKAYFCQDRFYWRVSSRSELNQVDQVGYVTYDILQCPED
substance,measurement,value
human recombinant MMP-9,"cleavage of the peptide conjugate by the enzyme, followed by HPLC and MS/MS","cleavage to anthraquinonyl, spacer-linked tripeptide Example 4"
